In paper doi:10.1101/2022.09.27.509796 (bioRxiv, 2022):

Molecular target: T1, ΔN100 y-mtRNAP (yeast mitochondrial RNA polymerase, RPO41) (Saccharomyces cerevisiae, UniProt P13433 101-1351)
T1 sequence (looked up): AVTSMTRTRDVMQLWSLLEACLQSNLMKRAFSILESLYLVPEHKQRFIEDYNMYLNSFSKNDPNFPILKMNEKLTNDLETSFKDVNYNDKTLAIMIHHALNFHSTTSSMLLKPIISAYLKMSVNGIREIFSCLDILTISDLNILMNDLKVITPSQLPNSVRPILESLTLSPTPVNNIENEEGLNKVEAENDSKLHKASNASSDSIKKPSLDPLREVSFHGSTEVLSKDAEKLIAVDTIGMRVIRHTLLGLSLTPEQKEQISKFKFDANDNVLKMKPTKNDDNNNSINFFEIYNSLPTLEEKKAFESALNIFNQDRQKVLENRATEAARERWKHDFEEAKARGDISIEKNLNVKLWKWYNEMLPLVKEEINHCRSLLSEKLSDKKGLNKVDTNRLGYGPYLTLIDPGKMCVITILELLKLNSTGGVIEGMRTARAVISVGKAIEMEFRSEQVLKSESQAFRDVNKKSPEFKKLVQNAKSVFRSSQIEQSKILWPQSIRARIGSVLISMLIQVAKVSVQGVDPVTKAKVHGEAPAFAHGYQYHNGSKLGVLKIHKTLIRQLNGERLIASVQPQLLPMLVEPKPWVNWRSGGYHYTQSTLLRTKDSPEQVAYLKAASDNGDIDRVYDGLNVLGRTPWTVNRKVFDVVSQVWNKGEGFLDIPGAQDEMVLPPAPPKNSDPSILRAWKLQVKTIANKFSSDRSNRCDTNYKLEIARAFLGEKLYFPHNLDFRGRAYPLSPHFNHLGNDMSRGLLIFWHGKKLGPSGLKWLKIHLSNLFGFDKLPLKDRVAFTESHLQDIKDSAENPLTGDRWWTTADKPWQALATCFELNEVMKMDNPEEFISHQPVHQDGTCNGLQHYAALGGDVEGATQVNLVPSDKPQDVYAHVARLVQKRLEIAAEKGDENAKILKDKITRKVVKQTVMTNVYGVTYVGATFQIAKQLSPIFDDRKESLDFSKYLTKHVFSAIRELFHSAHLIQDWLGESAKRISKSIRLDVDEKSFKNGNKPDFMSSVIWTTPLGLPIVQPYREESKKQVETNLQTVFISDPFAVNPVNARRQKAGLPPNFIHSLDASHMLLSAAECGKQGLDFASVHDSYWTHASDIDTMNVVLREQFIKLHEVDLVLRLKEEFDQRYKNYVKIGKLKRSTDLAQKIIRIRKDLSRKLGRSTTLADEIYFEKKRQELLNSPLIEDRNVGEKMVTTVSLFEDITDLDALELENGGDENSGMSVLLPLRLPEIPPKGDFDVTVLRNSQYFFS
Test: cryo-EM structure

- binding result: binds
B1: MTF1 (yeast mitochondrial transcription factor) (natural protein, Saccharomyces cerevisiae)
chain: SVPIPGIKDISKLKFFYGFKYLWNPTVYNKIFDKLDLTKTYKHPEELKVLDLYPGVGIQSAIFYNKYCPRQYSLLEKRSSLYKFLNAKFEGSPLQILKRDPYDWSTYSNLIDEERIFVPEVQSSDHINDKFLTVANVTGEGSEGLIMQWLSCIGNKNWLYRFGKVKMLLWMPSTTARKLLARPGMHSRSKCSVVREAFTDTKLIAISDANELKGFDSQCIEEWDPILFSAAEIWPTKGKPIALVEMDPIDFDFDVDNWDYVTRHLMILKRTPLNTVMDSLGHGGQQYFNSRITDKDLLKKCPIDLTNDEFIYLTKLFMEWPFKPDILMDFVDMYQTEHSG
